Results as given in patent US7799901B2, “Modulators of the function of FAS receptors and other proteins” (Yeda Research and Development Co. Ltd., priority 1995, dated 2010).

B1: MACHα1 (C360S): MACHα1 mutant in which the catalytic cysteine Cys360 is replaced by Ser (protein)
chain: MDFSRNLYDIGEQLDSEDLASLKFLSLDYIPQRKQEPIKDALMLFQRLQEKRMLEESNLSFLKELLFRINRLDLLITYLNTRKEEMERELQTPGRAQISAYRVMLYQISEEVSRSELRSFKFLLQEEISKCKLDDDMNLLDIFIEMEKRVILGEGKLDILKRVCAQINKSLLKIINDYEEFSKERSSSLEGSPDEFSNGEELCGVMTISDSPREQDSESQTLDKVYQMKSKPRGYCLIINNHNFAKAREKVPKLHSIRDRNGTHLDAGALTTTFEELHFEIKPHDDCTVEQIYEILKIYQLMDHSNMDCFICCILSHGDKGIIYGTDGQEAPIYELTSQFTGLKCPSLAGKPKVFFIQASQGDNYQKGIPVETDSEEQPYLEMDLSSPQTRYIPDEADFLLGMATVNNCVSYRNPAEGTWYIQSLCQSLRERCPRGDDILTILTEVNYEVSNKDDKKNMGKQMPQPTFTLRKKLVFPSD
B2: MACHβ1: MACH isoform, cDNA SEQ ID NO: 4, amino acid SEQ ID NO: 5; lacks the CED3/ICE homology region (protein)
chain: MDFSRNLYDIGEQLDSEDLASLKFLSLDYIPQRKQEPIKDALMLFQRLQEKRMLEESNLSFLKELLFRINRLDLLITYLNTRKEEMERELQTPGRAQISAYRVMLYQISEEVSRSELRSFKFLLQEEISKCKLDDDMNLLDIFIEMEKRVILGEGKLDILKRVCAQINKSLLKIINDYEEFSKERSSSLEGSPDEFSNDFGQSLPNEKQTSGILSDHQQSQFCKSTGESAQTSQH

Key:
[1] = biological target: T1, MACHβ1 (Homo sapiens, UniProt Q14790); assay: Two-hybrid β-galactosidase filter assay (FIG. 5), binding to MACHβ1; settings: two hybrid test
T1 construct: a construct encoding only the ORF-B (MACH B) region; expressed in transfected cells; host or cells: SFY526 yeast
Description: The yeast two-hybrid test was further applied to evaluate the specificity of binding of MACH to MORT-1, in particular, to define the region in MORT-1 to which MACH binds, as well as to determine which of the MACH ORFs interacts with MORT-1, the procedures being as set forth herein above in Examples 1 and 2. Briefly, various MORT-1 and MACH constructs were prepared for testing the interaction of the proteins encoded by the Gal4 DNA-binding domain and activation domain constructs within transfected SFY526 yeast cells as assessed by the β-galactosidase expression filter assay. The DNA-binding domain constructs were prepared in pGBT9 vectors and the activation domain constructs were prepared in pGAD-GM vectors. For the activation domain constructs, the full-length MACH cDNA was used (MACH), as was a construct encoding only the ORF-B (MACH B) region. Control activation domain constructs were those containing the full-length MORT-1 coding sequence (MORT 1, positive control) and those having no inserts, i.e., “empty” vectors (pGAD-GM). For the DNA-binding domain constructs, the full-length MORT-1 cDNA was used (MORT 1), as were constructs encoding only the MORT-1 […] (MORT-1DD aa 130-245). […] In the assay, the development of color was determined, where the greater the color development, the greater the interaction between the constructs encoded by the DNA-binding domain and activation domain; Color development was depicted by symbols, where “+++” and “+” indicate the development of a strong color within 30 and 90 min. of the assay, respectively, and “−−−” indicates the lack of development of color within 24 hrs. of the assay. […]
In FIG. 5, there is shown the results of the interaction of MORT-1 and MACH within transfected yeast cells. […] Their interaction was assessed by a β-galactosidase expression filter assay as described in Boldin et al (1995b). […]

[2] = test system: human embryonic kidney 293-EBNA cells; assay: Cell death on overexpression of MACH isoforms in 293-EBNA cells; format: cell-based; settings: β-galactosidase-expressing cells with apoptopic morphology, 20 h after transfection
Description: To explore the involvement of MACH in cell-death induction, the effect of overexpression of various MACH isoforms on cell viability was examined. The test was performed by transfecting MACH expression vectors together with a β-galactosidase expression vector as a transfection marker into human embryonic kidney 293-EBNA cells and breast carcinoma MCF7 cells.
In brief, 293-EBNA cells, MCF7 human breast carcinoma cells and HeLa HtTA-1 cells were grown in Dulbecco's modified Eagle's minimal essential medium supplemented with 10% fetal calf serum, nonessential amino acids, 100 U/ml penicillin and 100 μg/ml streptomycin. Cell tissue culture dishes (5×10^5 293-EBNA cells, 3×10^5 s MCF7 cells or 3×10^5 HeLa cells in 6-cm dishes) were transiently transfected, using the calcium phosphate precipitation method, with the cDNAs of the indicated proteins together with the β-galactosidase expression vector. In the experiments presented in FIGS. 14A-D and 15, each dish was transfected with 3.5 μg of the indicated MACH construct and 1.5 μg of pSV-β-gal. In the experiments presented in FIGS. 16A-D and 17-19, each dish was transfected with 2.5 μg of the indicated MACH or MORT1 construct (or, as control, empty vector) and 1.5 μg of pSV-β-gal. The cells were rinsed 6 to 10 h after transfection. The 293-EBNA and MCF7 cells were incubated for a further 18 h without additional treatment. The HeLa cells were incubated for 26 h after transfection and-then for 5 h in the presence of either anti-Fas.APO1 antibody (CH11, 0.5 μg/ml) or TNF (100 ng/ml), together with cycloheximide (10 μg/ml). The extent of cell death at the end of the incubation periods was assessed by determination of β-galactosidase expression, as described by Kumar et al, 1994.
In particular, FIGS. 14A-D show the morphology of human embryonic kidney 293-EBNA cells transiently expressing the indicated MACH isoforms. The arrows (FIG. 14B) point to apoptopic cells. Photographs were taken 26 h after transfection. […] Data are from three independent experiments with the 293-EBNA cells and two independent experiments with the MCF7 cells.

| Molecule | binding to MACHβ1 in transfected yeast [1] | cell death of transfected 293-EBNA cells [2] |
| --- | --- | --- |
| MACHα1: MACH isoform, cDNA SEQ ID NO: 14, amino acid SEQ ID NO: 7; contains CED3/ICE homology region | scored clearly positive | massive cell death |
| B1 | bound | No death |
| B2 | self-associated | some slight cell death |
